The labels stand for the following.
B1: scFv; the commonest letter at each place (parent)
chain 1: EVKLDETGGGLVQPGRPMKLSCVASGFTFSDYWMNWVRQSPEKGLEWVAQIRNKPYNYETYYSDSVKGRFTISRDDSKSSVYLQMNNLRVEDMGIYYCTGSYYGMDYWGQGTSVTVS
chain 2: DVVMTQTPLSLPVSLGDQASISCRSSQSLVHSNGNTYLRWYLQKPGQSPKVLIYKVSNRFSGVPDRFSGSGSGTDFTLKISRVEAEDLGVYFCSQSTHVPWTFGGGTKLEIK

The variants in the series “fluorescein” derive from B1. The series is described as follows: Kd (Tite-Seq). The conditions noted are these: with fluorescein; format: scFv 4-4-20, heavy + light.
Variants of B1 are the subject of series [1]. As to the kind of experiment: yeast surface expression (ratio to wild type); higher = more expressed. The settings on record: format: scFv 4-4-20, heavy + light.

Regarding chain 1 G100S M105W, the Kd with fluorescein was 5.37 µM. The yeast surface expression in series [1] amounted to 0.758.

For the variant chain 1 G100W S101D G109V, the Kd in the series with fluorescein was at least 10 µM. Also, the yeast surface expression in series [1] stood at 0.286.

For the variant chain 1 G104L Y107E, the Kd with fluorescein is at least 10 µM. For the same variant, the yeast surface expression in series [1] amounted to 0.499.

chain 1 G104L Y107C: the Kd with fluorescein is at least 10 µM. Also, in series [1], the yeast surface expression was determined as 0.133.

Turning to chain 1 G100V Y107N G109P, the Kd with fluorescein is at least 10 µM. In series [1], the yeast surface expression amounted to 0.341.

chain 1 G100T G109K: in the series with fluorescein, the Kd is at least 10 µM. The yeast surface expression in series [1] worked out at 0.433.

In the case of chain 1 G104H W108R, in the series with fluorescein, the Kd was at least 10 µM. The yeast surface expression in series [1] stood at 0.272.

Regarding chain 1 G104Q, the Kd with fluorescein is at least 10 µM. In series [1], the yeast surface expression amounted to 0.824.

As for chain 1 G104F, the Kd in the series with fluorescein is at least 10 µM. Further, the yeast surface expression in series [1] is 0.597.

As to chain 1 G104L, the Kd in the series with fluorescein is at least 10 µM. In addition, in series [1], the yeast surface expression was determined as 0.556.

With chain 1 G104W, in the series with fluorescein, the Kd is at least 10 µM. Also, the yeast surface expression in series [1] stood at 0.587.

For the variant chain 1 G104N, the Kd in the series with fluorescein is at least 10 µM. Also, the yeast surface expression in series [1] worked out at 1.1.

As for chain 1 G104I, in the series with fluorescein, the Kd was at least 10 µM. In series [1], the yeast surface expression is 0.325.

Consider chain 1 G104R, for which the Kd with fluorescein was at least 10 µM. The yeast surface expression in series [1] was found to be 0.626.

For chain 1 G104M, in the series with fluorescein, the equilibrium dissociation constant (Kd) was at least 10 µM. Besides, the yeast surface expression in series [1] was 0.571.

For chain 1 G104Y, the Kd with fluorescein was at least 10 µM. The yeast surface expression in series [1] was 0.464.

chain 1 G104S: the Kd with fluorescein was at least 10 µM. In series [1], the yeast surface expression came out at 0.799.

For chain 1 G104V, the Kd with fluorescein is at least 10 µM. Moreover, the yeast surface expression in series [1] worked out at 0.536.

Regarding chain 1 G104C, the Kd with fluorescein is at least 10 µM. Moreover, in series [1], the yeast surface expression came to 0.578.

Turning to chain 1 G104D, the equilibrium dissociation constant (Kd) with fluorescein is at least 10 µM. Further, the yeast surface expression in series [1] came to 0.918.

chain 1 G104P: the Kd in the series with fluorescein is at least 10 µM. The yeast surface expression in series [1] amounted to 0.859.

Turning to chain 1 G104E, the Kd with fluorescein was at least 10 µM. Further, the yeast surface expression in series [1] was determined as 1.04.

For chain 1 G104T, the Kd in the series with fluorescein is at least 10 µM. In series [1], the yeast surface expression came to 0.599.

Take chain 1 G104K: in the series with fluorescein, the dissociation constant (Kd) was at least 10 µM. The yeast surface expression in series [1] came to 0.557.

chain 1 G104A: in the series with fluorescein, the Kd is at least 10 µM. For the same variant, the yeast surface expression in series [1] worked out at 0.693.

As to chain 1 G104H, the Kd with fluorescein is at least 10 µM. Also, the yeast surface expression in series [1] was determined as 0.716.

With chain 1 G100S Y103P, in the series with fluorescein, the Kd was at least 10 µM. In addition, the yeast surface expression in series [1] worked out at 0.689.

As to chain 1 G100S Y103H, in the series with fluorescein, the Kd was 0.0245 µM. Moreover, in series [1], the yeast surface expression is 1.01.

chain 1 G100V M105S: the Kd with fluorescein is at least 10 µM. In series [1], the yeast surface expression amounted to 0.855.

On to chain 1 G100W G109S, for which, in the series with fluorescein, the Kd is at least 10 µM. Moreover, the yeast surface expression in series [1] was 0.43.

For chain 1 G100W Y107Q, the Kd with fluorescein is at least 10 µM. Moreover, the yeast surface expression in series [1] came to 0.323.

Turning to chain 1 G100W Y107R, the Kd in the series with fluorescein was at least 10 µM. The yeast surface expression in series [1] worked out at 0.229.

On to chain 1 G104L M105L, for which the Kd in the series with fluorescein was at least 10 µM. Besides, the yeast surface expression in series [1] amounted to 0.303.

As to chain 1 G104D M105L, the Kd in the series with fluorescein was at least 10 µM. For the same variant, in series [1], the yeast surface expression was 1.07.

As for chain 1 G104D M105W, in the series with fluorescein, the Kd is at least 10 µM. Also, in series [1], the yeast surface expression was 0.703.

For chain 1 G104C Y107P W108I, the Kd in the series with fluorescein is at least 10 µM. Besides, the yeast surface expression in series [1] came to 0.214.

As to chain 1 G100W Y102S, in the series with fluorescein, the Kd was 0.00606 µM. Besides, in series [1], the yeast surface expression was determined as 0.723.

On to chain 1 G100Y Y107K, for which the Kd with fluorescein is at least 10 µM. In addition, the yeast surface expression in series [1] turned out to be 0.555.

As for chain 1 G100Y Y107W, the Kd with fluorescein was at least 10 µM. For the same variant, the yeast surface expression in series [1] was found to be 0.468.

For chain 1 G100Y Y107T, the Kd with fluorescein is at least 10 µM. Also, the yeast surface expression in series [1] worked out at 0.388.

For chain 1 G100Y Y107Q, the Kd with fluorescein is at least 10 µM. The yeast surface expression in series [1] came to 0.595.

On to chain 1 G104I D106N G109F, for which, in the series with fluorescein, the Kd came out at 0.345 µM. In addition, the yeast surface expression in series [1] amounted to 0.094.

chain 1 G104E D106A: the Kd with fluorescein was at least 10 µM. The yeast surface expression in series [1] was 0.657.

For chain 1 G100V W108N, in the series with fluorescein, the Kd was at least 10 µM. In series [1], the yeast surface expression worked out at 0.468.

Consider chain 1 G100V W108V, for which the dissociation constant (Kd) with fluorescein came out at 0.000846 µM. Further, the yeast surface expression in series [1] worked out at 0.892.

As for chain 1 G100V W108C, in the series with fluorescein, the Kd came to 5.96 µM. The yeast surface expression in series [1] worked out at 0.628.

On to chain 1 G104M W108V G109T, for which the Kd in the series with fluorescein was at least 10 µM. Besides, in series [1], the yeast surface expression was found to be 0.212.

In the case of chain 1 G104C Y107V, the Kd with fluorescein is at least 10 µM. Also, the yeast surface expression in series [1] was found to be 0.461.

On to chain 1 G104C Y107F, for which, in the series with fluorescein, the Kd was at least 10 µM. The yeast surface expression in series [1] came to 0.291.

Consider chain 1 G100S Y103L W108N, for which the Kd with fluorescein is at least 10 µM. Moreover, the yeast surface expression in series [1] was determined as 0.26.

Consider chain 1 G100S Y107A, for which, in the series with fluorescein, the Kd is at least 10 µM. Further, in series [1], the yeast surface expression was found to be 0.942.

Consider chain 1 G100S Y107D, for which the Kd in the series with fluorescein was at least 10 µM. Moreover, the yeast surface expression in series [1] came to 0.543.

As for chain 1 G100W D106S W108L, in the series with fluorescein, the Kd is at least 10 µM. For the same variant, the yeast surface expression in series [1] came out at 0.243.

For chain 1 G100V Y103F, the Kd with fluorescein is 0.876 µM. Further, the yeast surface expression in series [1] turned out to be 0.679.

On to chain 1 G100T S101D, for which the Kd in the series with fluorescein is at least 10 µM. In addition, the yeast surface expression in series [1] came to 0.83.

For chain 1 G100V Y103R G104L, in the series with fluorescein, the Kd was at least 10 µM. Also, in series [1], the yeast surface expression amounted to 0.88.

As for chain 1 G100V Y102P M105N, the Kd in the series with fluorescein is at least 10 µM. For the same variant, in series [1], the yeast surface expression is 0.63.

chain 1 G100Y Y102T: the Kd in the series with fluorescein was at least 10 µM. The yeast surface expression in series [1] turned out to be 0.662.

One may read the Kd as the constant that tells how readily two partners part at equilibrium.

Values taken from the FLAb antibody collection (doi:10.7554/elife.23156).
